# Biological target: CD89 (Fc receptor for IgA) on polymorphonuclear cells (human) (UniProt P24071)
# Assay: cell-based or functional assay
# CD89 (Fc receptor for IgA) on polymorphonuclear cells (human), sequence (P24071 22-287): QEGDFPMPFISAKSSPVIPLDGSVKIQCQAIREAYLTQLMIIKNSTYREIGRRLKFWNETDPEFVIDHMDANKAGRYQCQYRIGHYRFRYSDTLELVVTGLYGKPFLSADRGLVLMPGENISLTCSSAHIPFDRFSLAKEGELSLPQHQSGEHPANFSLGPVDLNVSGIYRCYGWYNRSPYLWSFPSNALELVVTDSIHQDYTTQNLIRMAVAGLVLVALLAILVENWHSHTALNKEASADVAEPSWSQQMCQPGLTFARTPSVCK
row,"percentage blocking (polymorphonuclear cells bound to IgA-coated beads, 2-D migration assay) [%]",Substance
1,75 to 90,anti-CD89 monoclonal antibody MIP8a
2,30,anti-CD89 monoclonal antibody MY43
